Test results from article PMC5771398, “Structural basis for assembly of the CBF3 kinetochore complex” (The EMBO Journal, 2017).

Target: T1, Cep3-Ctf13-Skp1 core complex (S. cerevisiae, UniProt P40969 1-608; P35203 1-478; P52286 1-194, four phosphorylations (intact mass spectrometry); sites not given)
T1 construct: Cep3, budding yeast, full length; Ctf13, budding yeast, full length; Skp1, budding yeast, full length; Core complex as it stood in size-exclusion chromatography with Ndc10 or the Ndc10 NTD (tag cleaved); also called CBF3 core complex; coreWT; source: S. cerevisiae, co-expressed, purified (Strep-Trap, heparin, TEV, anion exchange, SEC); not shown: double-StrepTactin tag, C-terminal, cleaved; …
T1 sequence (P40969 whole entry, chain 1 of 3): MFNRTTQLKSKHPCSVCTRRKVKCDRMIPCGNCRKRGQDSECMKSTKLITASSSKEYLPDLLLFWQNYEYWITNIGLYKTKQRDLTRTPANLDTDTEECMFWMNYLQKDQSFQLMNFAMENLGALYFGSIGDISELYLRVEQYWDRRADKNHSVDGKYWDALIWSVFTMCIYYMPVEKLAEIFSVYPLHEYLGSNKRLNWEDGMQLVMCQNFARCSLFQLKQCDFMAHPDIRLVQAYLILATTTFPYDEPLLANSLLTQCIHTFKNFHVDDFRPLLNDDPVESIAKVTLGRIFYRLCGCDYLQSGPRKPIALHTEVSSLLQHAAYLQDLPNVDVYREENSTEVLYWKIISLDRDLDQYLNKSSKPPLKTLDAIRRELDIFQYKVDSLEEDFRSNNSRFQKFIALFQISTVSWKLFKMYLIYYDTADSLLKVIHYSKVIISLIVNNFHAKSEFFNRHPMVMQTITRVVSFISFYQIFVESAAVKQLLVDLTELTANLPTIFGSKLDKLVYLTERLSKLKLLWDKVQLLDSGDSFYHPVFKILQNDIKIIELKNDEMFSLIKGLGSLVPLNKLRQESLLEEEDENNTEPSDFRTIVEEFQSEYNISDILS
T1 sequence (P35203 whole entry, chain 2 of 3): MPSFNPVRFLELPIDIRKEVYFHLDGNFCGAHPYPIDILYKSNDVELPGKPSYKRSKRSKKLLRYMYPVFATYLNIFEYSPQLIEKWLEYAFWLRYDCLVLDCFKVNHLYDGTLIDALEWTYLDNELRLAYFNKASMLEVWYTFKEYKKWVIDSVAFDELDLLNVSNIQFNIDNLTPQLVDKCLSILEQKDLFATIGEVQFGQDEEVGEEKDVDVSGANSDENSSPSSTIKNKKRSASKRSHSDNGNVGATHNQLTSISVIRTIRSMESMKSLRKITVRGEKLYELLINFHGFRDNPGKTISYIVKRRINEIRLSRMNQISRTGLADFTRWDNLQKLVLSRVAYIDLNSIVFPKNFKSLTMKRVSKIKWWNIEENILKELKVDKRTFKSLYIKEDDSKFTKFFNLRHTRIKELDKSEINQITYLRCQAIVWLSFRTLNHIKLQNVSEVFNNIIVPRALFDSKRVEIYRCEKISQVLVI
T1 sequence (P52286 whole entry, chain 3 of 3): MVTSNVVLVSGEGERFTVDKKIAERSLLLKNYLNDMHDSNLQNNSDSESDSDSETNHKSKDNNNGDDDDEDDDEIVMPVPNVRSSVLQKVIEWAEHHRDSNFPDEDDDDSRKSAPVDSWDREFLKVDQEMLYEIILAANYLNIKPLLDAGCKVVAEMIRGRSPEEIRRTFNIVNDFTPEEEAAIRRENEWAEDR
Experiment: SEC; Superose 6 in 10 mM HEPES, 300 mM NaCl, 1 mM DTT; core and Ndc10 separated on heparin and combined, tag cleaved; stoichiometry judged by band intensities on SDS-PAGE/Coomassie
Settings: both partners purified

stoichiometry N: 2
B1: Ndc10 (natural protein, S. cerevisiae, UniProt P32504 1-956, looked up)
chain: MRSSILFLLKLMKIMDVQQQQEAMSSEDRFQELVDSLKPRTAHQYKTYYTKYIQWCQLNQIIPTPEDNSVNSVPYKDLPISAELIHWFLLDTLITDDKPGEKREETEDLDEEEENSFKIATLKKIIGSLNFLSKLCKVHENPNANIDTKYLESVTKLHTHWIDSQKAITTNETNNTNTQVLCPPLLKVSLNLWNPETNHLSEKFFKTCSEKLRFLVDFQLRSYLNLSFEERSKIRFGSLKLGKRDRDAIIYHKVTHSAEKKDTPGHHQLLALLPQDCPFICPQTTLAAYLYLRFYGIPSVSKGDGFPNLNADENGSLLQDIPILRGKSLTTYPREETFSNYYTTVFRYCHLPYKRREYFNKCNLVYPTWDEDTFRTFFNEENHGNWLEQPEAFAFPDKIPFDFKKIMNFKSPYTSYSTNAKKDPFPPPKDLLVQIFPEIDEYKRHDYEGLSQNSRDFLDLMEVLRERFLSNLPWIYKFFPNHDIFQDPIFGNSDFQSYFNDKTIHSKGSPILSFDILPGFNKIYKNKTNFYSLLIERPSQLTFASSHNPDTHPTQKQESEGPLQMSQLDTTQLNELLKQQSFEYVQFQTLSNFQILLSVFNKIFEKLEMKKSSRGYILHQLNLFKITLDERIKKSKIDDADKFIRDNQPIKKEENIVNEDGPNTSRRTKRPKQIRLLSIADSSDESSTEDSNVFKKDGESIEDGAYGENEDENDSEMQEQLKSMINELINSKISTFLRDQMDQFELKINALLDKILEEKVTRIIEQKLGSHTGKFSTLKRPQLYMTEEHNVGFDMEVPKKLRTSGKYAETVKDNDDHQAMSTTASPSPEQDQEAKSYTDEQEFMLDKSIDSIEGIILEWFTPNAKYANQCVHSMNKSGNKSWRANCEALYKERKSIVEFYIYLVNHESLDRYKAVDICEKLRDQNEGSFSRLAKFLRKWRHDHQNSFDGLLVYLSN
notes: synthetic gene codon-optimised for S. cerevisiae; also called full-length Ndc10; source: S. cerevisiae, co-expressed with the other CBF3 subunits and Sgt1; in lysate (pull-down) and purified (heparin, anion exchange, SEC)
